Measurements reported in patent publication US6861508B2, “Transcriptional intermediary factor-2” (Institut National de la Sante et de la Recherche Medicale, priority 1996, dated 2005).

Experiments:
[1] = test system: GAL4 reporter; assay: GAL4 DBD-TIF2 fusion CAT reporter transactivation assay; format: cell-based; details: Cos-1 and/or HeLa cells
Procedure: (a) HeLa cells were cotransfected with 1 μg (17m)5-βG-CAT and 10 μg GAL(1-147) or 1,3 and 10 μg GAL(1-147)-TIF2.1, respectively.
(c) Analysis of the transcriptional activity of GAL-TIF2 fusion proteins. Cos-1 and HeLa cells were transfected with 3 lag of plasmids expressing different regions of TIF2 fised to the DNA-binding domain of the yeast transcription factor GALA together with 1 μg of the (7m)5-G-CAT reporterplasmid. CAT assays were performed as described (Bocquel, M. T. et al., Nucl Acids Res. 17:2581-2595 (1989)). Quantitative data on CAT reporter expression were obtained either by phosphoimager analysis (BAS2000, Fuji) of ^14C-labeled CAT reaction products separated by thin-layer chromatography, or using the CAT ELISA Kit (Boehringer Mannheim). In all cases, CAT activities were normalized to the β-galactosidase concentrations resulting from cotransfection of 1 μg of pCMVPGal (gift from T. Lerouge) as internal control. Fold inductions above the GAL4 DBD value are indicated. The mean and standard deviation of at least three experiments are shown. A representative Western blot, illustrating the expression levels of the GAL4-TIF2 fusion proteins, expressed from 10 μg of the corresponding expression vectors, is shown on the left.
(b) Transcriptional activation of TIF2 AF-1 mutants. Cos-1 and HeLa cells were cotransfected with 3 μg of plasmids expressing different mutants of the TIF2 AF-1 fused to the DNA-binding domain of the yeast transcription factor GAL4 together with 1 μg of the (17m)5-G-CAT reporter plasmid. Fold inductions above the activation seen with the GAL4 DBD alone are indicated. The values represent the mean of at least three experiments.
(a) Transcriptional activation by TIF2.13 and TIF2.13 mutants. Cos-1 and HeLa cells were cotransfected with 3 μg of plasmids expressing the TIF2.13 region and the indicated TIF2.13 mutants fused to the DNA-binding domain of the yeast transcription factor GALA together with 1 μg of the (17m)5-G-CAT reporter plasmid. Fold inductions above the GAL4 DBD 1-fold value are indicated. The mean and standard deviation obtained from at least four experiments are shown. The expression levels of the GAL4-TIF2.13 fusion proteins were confirmed by western blotting (data not shown).
Transient transfections of HeLa and Cos-1 cells were performed as described (Gronemeyer et al., (1987); Bocquel, M. T. et al., Nucl. Acids Res. 17:2581-2595 (1989)).

[2] = test system: CBP (residues 1872 to 2165); assay: GST-CBP pull-down of TIF2 polypeptides; format: binding
Procedure: (d) Mapping of the CBP-interacting domain of TIF2. GST puld own experiments were performed with ^35S-labeled in-vitro-translated TIF2 polypeptides and bacterially produced GST and GST-CBP (expressing CBP residues 1872 to 2165).
(c) Interaction of TIF2 AF-1 mutants with CBP in vitro. GST pull-down experiments were performed with ^35S-labeled in-vitro-translated GAL-TIF2 fusion proteins and bacterially produced GST and GST-CBP.
(c) Interaction of TIF2.13 wildtype and TIF2.13 mutants with CBP in vitro. GST pull-down experiments were performed with ^35S-labeled in-vitro-translated VP16-TIF2.13 polypeptides and bacterially produced GST and GST-CBP.
(§1) Furthermore, it was reported that SRC-1, which belongs to the same gene family as TIF2, interacts with CBP and p300 (Kamei, Y. et al., Cell 85:403-414 (1996); Yao, T. P. et al., Proc. Natl. Acad. Sci. USA 93:10626-10631 (1996); Hanstein, B., et al., Proc. Natl. Acad Sci USA 93:11540-11545 (1996)). Using GST-fusion protein-based interaction and animal cell-based two hybrid assays, we therefore analyzed whether TIF2 could also interact with CBP. […] A GST-CBP fusion protein was expressed in E. coli and used for puU-down assays with in vitro translated TIF2 polypeptides (FIG. 7d).

[3] = test system: GAL-CBP; assay: two hybrid analysis of CBP-TIF2 interaction in HeLa cells; format: cell-based
Procedure: (e) Two hybrid analysis of the CBP-TIF2 interaction in mammalian cells in vivo. HeLa cells were transfected with 0.2 μg of the GAL4 or GALA-CBP (expressing CBP residues 1872 to 2165) expression vectors together with 0.2 μg of the VP16 or VPI6-TF2 expression vectors in the presence of 2 μg of (17m)5-TATA-CAT reporter plasmid. Fold induction relative to the GAL-CBP activity is indicated. The mean of three experiments is shown; in each case, values varied by less than ±20%.
HeLa cells were transfected with 0.2 μg of GAL4 or GAL-CBP expression vectors together with 0.2 μg of VP16 or VP16-TIF2.13 expression vectors in the presence of 1 μg of (17m)5-TATA-CAT reporter plasmid. Data are represented as fold induction of the activity seen with GAL-CBP alone. The mean and standard, deviation obtained from ten experiments are shown. The expression levels were confirmed by Western blotting with antibodies directed against GAL4 DBD and VP16 AAD (data not shown).
as §1

[4] = test system: histone; assay: histone acetylase activity of purified TIF2 fragments; format: biochemical; details: bacterially-expressed purified fragment
From the text: TIF2 can apparently fulfill at least two mediator functions, (i) as a “bridging factor” between the AF-2 function of nuclear receptors and CBP via its AD1 activation domain and (ii) as a transcriptional mediator through as yet unknown CBP binding-independent route(s) via its AD2 function.

[5] = test system: ER (HEGO); assay: yeast PL3 (ERE)3-URA3 reporter, OMP decase activity, ER; format: cell-based, human; details: with estradiol
From the text: (§2) FIG. 11. The TIF2.1 coactivator fragment efficiently stimulates the ligand-dependent AF-2 of ER, RAR and RXR in yeast. No stimulatory effect of TIF2.1 on the isolated AF-1 of ER (HE15) is observable. Plasmids expressing different regions of hERα (white), hRARα (grey) and mRXRα (black) fused to the ER DBD (hERα(C)) were introduced into the yeast reporter strain PL3 (α) together with TIF2.1 as indicated. […] OMP decase activities determined on each cell-free extract are expressed in nmoyrnin/mg protein; the mean and standard deviation of at least four experiments are shown.
(§3) We therefore investigated whether TIF2 could enhance transcriptional activation by various NR constructs expressed in S. cerevisiae. Both, NRs and TIF2.1 were expressed from multicopy plasmids in the yeast strain PL3 (a), which contains a URA3 reporter gene under the control of three estrogen response elements ((ERE)3-URA3; Pierrat, B. et al., Gene 119:237-245 (1992)).
(§4) In yeast, the hERa constructs were expressed from the following YEp90-based plasmids: HEGO (hERα, YEp90-HEGO, amino acids 1-595), HE15 (YEp90-HE15, amino acids 1-282), and HEG19 (YEp90-HEG19, amino acids 179-595) (all Pierrat, B. et al., Gene 119:237-245 (1992)), HE179-338 (YEp90-HE179-338; Pierrat, B. et al., Gene 143:193-200 (1994)). […]

[6] = test system: RXRα AF-2; assay: yeast PL3 (ERE)3-URA3 reporter, OMP decase activity, RXRα; format: cell-based, mouse; details: with ligand
From the text: as §2, §3, §4

[7] = test system: RARα LBD; assay: yeast PL3 (ERE)3-URA3 reporter, OMP decase activity, RARα; format: cell-based, human; details: absence of ligand
From the text: as §2, §3, §4

binding to GST-CBP in vitro [2]: also interacted with GST-CBP
effect on transcriptional activity of ER [5]: further enhanced
effect on AF-2 activity of liganded RXRα [6]: stimulated
effect on transactivation by RARα LBD [7]: very efficiently enhanced
B1: TIF2.1: cytoplasmic TIF2 coactivator fragment, amino acids 624 to 1287 of SEQ ID NO:2 (protein)
chain: ERADGQSRLHDSKGQTKLLQLLTTKSDQMEPSPLASSLSDTNKDSTGSLPGSGSTHGTSLKEKHKILHRLLQDSSSPVDLAKLTAEATGKDLSQESSSTAPGSEVTIKQEPVSPKKKENALLRYLLDKDDTKDIGLPEITPKLERLDSKTDPASNTKLIAMKTEKEEMSFEPGDQPGSELDNLEEILDDLQNSQLPQLFPDTRPGAPAGSVDKQAIINDLMQLTAENSPVTPVGAQKTALRISQSTFNNPRPGQLGRLLPNQNLPLDITLQSPTGAGPFPPIRNSSPYSVIPQPGMMGNQGMIGNQGNLGNSSTGMIGNSASRPTMPSGEWAPQSSAVRVTCAATTSAMNRPVQGGMIRNPAASIPMRPSSQPGQRQTLQSQVMNIGPSELEMNMGGPQYSQQQAPPNQTAPWPESILPIDQASFASQNRQPFGSSPDDLLCPHPAAESPSDEGALLDQLYLALRNFDGLEEIDRALGIPELVSQSQAVDPEQFSSQDSNIMLEQKAPVFPQQYASQAQMAQGSYSPMQDPNFHTMGQRPSYATLRMQPRPGLRPTGLVQNQPNQLRLQLQHRLQAQQNRQPLMNQISNVSNVNLTLRPGVPTQAPINAQMLAQRQREILNQHLRQRQMHQQQQVQQRTLMMRGQGLNMTPSMVAPSGMPATMS
transcriptional activation of GAL4 reporter by GAL4 DBD fusion [1]: strongly transactivated
interaction with GAL-CBP, two hybrid [3]: scored positive
histone acetylase activity [4]: none
